# Test results: PMC9751120
# Columns and labels:
# [1] = biological target: Alexa 488 labeled DARPin 8F1; experiment: fluorescence polarisation; fluorescence anisotropy; 500 nM Alexa 488 labeled DARPin constant, p63 isoform 0-10 µM; 50 mM Tris pH 8, 150 mM NaCl, 0.5 mM TCEP, 0.1 % Tween-20; the sheet says 20 °C, the methods 16 °C
# [2] = biological target: Alexa 488 labeled DARPin A5; experiment: as above
# [3] = biological target: Alexa 488 labeled DARPin C14; experiment: as above
# DARPin A5 [4] = experiment: ITC; target proteins titrated to constant concentrations of DARPin; 50 mM HEPES, pH 7.4, 150 mM NaCl, 0.5 mM TCEP; AB hetero-association model (SEDPHAT); temperatures not shown
# DARPin A5 [5] = experiment: ITC; target protein titrated into a constant concentration of DARPin, 25 injections of 10 µl; 50 mM HEPES pH 7.4, 150 mM NaCl, 0.5 mM TCEP; 25 °C; AB hetero-association model (SEDPHAT)
Kd [1] [nM],Kd [2] [nM],Kd [3] [nM],Kd (DARPin A5 [4]) [nM],Ka (DARPin A5 [5]) [M⁻¹],Binder
95.6,67.9,202,,,ΔNp63α (natural protein) MLYLENNAQTQFSEPQYTNLGLLNSMDQQIQNGSSSTSPYNTDHAQNSVTAPSPYAQPSSTFDALSPSPAIPSNTDYPGPHSFDVSFQQSSTAKSATWTYSTELKKLYCQIAKTCPIQIKVMTPPPQGAVIRAMPVYKKAEHVTEVVKRCPNHELSREFNEGQIAPPSHLIRVEGNSHAQYVEDPITGRQSVLVPYEPPQVGTEFTTVLYNFMCNSSCVGGMNRRPILIIVTLETRDGQVLGRRCFEARICACPGRDRKADEDSIRKQQVSDSTKNGDGTKRPFRQNTHGIQMTSIKKRRSPDDELLYLPVRGRETYEMLLKIKESLELMQYLPQHTIETYRQQQQQQHQHLLQKQTSIQSPSSYGNSSPPLNKMNSMNKLPSVSQLINPQQRNALTPTTIPDGMGANIPMMGTHMPMAGDMNGLSPTQALPPPLSMPSTSHCTPPPPYPTDCSIVSFLARLGCSSCLDYFTTQGLTTIYQIEHYSMDDLASLKIPEQFRHAIWKGILDHRQLHEFSSPSHLLRTPSSASTVSVGSSETRGERVIDAVRFTLRQTISFPPRDEWNDFNFDMDARRNKQQRIKEEGE
,,,16,6.18e+07,p63 Sterile α-motif (SAM) domain (domain or fragment) PPYPTDCSIVSFLARLGCSSCLDYFTTQGLTTIYQIEHYSMDDLASLKIPEQFRHAIWKGILDHRQL
